Results published in patent publication US20250179176A1, “ANTI-TIGIT ANTIBODIES AND USES OF THE SAME” (ARCUS BIOSCIENCES, INC., priority 2022, published 2025).

Settings: in vivo

Substance: zimberelimab: antagonistic PD-1 antibody, immune checkpoint inhibitor
- Any SAEs Leading to DC: 8 (21) n (%)
- Any SAEs Leading to Study Drug Discontinuation: 9 (18.0) n (%)
- Any SAEs, events: 30 n
- Any SAEs, subjects: 18 (47.4) n (%)
- Any TEAEs of Grade 3 or Higher, events: 41 n
- Any TEAEs of Grade 3 or Higher, subjects: 20 (52.6) n (%)
- Any TEAEs that are immune-related: 24 (48.0) n (%)
- Any TEAEs, events: 271 n
- Any TEAEs, subjects: 36 (94.7) n (%)
- Grade ≥3 TEAE Acute respiratory failure, events: 0 n
- Grade ≥3 TEAE Acute respiratory failure, subjects: 0 n (%)
- Grade ≥3 TEAE Anaemia, events: 2 n
- Grade ≥3 TEAE Anaemia, subjects: 2 (5.3) n (%)
- Grade ≥3 TEAE Asthenia, events: 2 n
- Grade ≥3 TEAE Asthenia, subjects: 2 (5.3) n (%)
- Grade ≥3 TEAE Chronic obstructive pulmonary disease, events: 0 n
- Grade ≥3 TEAE Chronic obstructive pulmonary disease, subjects: 0 n (%)
- Grade ≥3 TEAE Dyspnoea, events: 3 n
- Grade ≥3 TEAE Dyspnoea, subjects: 3 (7.9) n (%)
- Grade ≥3 TEAE Fatigue, events: 0 n
- Grade ≥3 TEAE Fatigue, subjects: 0 n (%)
- Grade ≥3 TEAE Hyperglycaemia, events: 2 n
- Grade ≥3 TEAE Hyperglycaemia, subjects: 2 (5.3) n (%)
- Grade ≥3 TEAE Hyperkalaemia, events: 0 n
- Grade ≥3 TEAE Hyperkalaemia, subjects: 0 n (%)
- Grade ≥3 TEAE Hypertension, events: 0 n
- Grade ≥3 TEAE Hypertension, subjects: 0 n (%)
- Grade ≥3 TEAE Hypokalaemia, events: 3 n
- Grade ≥3 TEAE Hypokalaemia, subjects: 3 (7.9) n (%)
- Grade ≥3 TEAE Hypoxia, events: 1 n
- Grade ≥3 TEAE Hypoxia, subjects: 1 (2.6) n (%)
- Grade ≥3 TEAE Myocardial infarction, events: 1 n
- Grade ≥3 TEAE Myocardial infarction, subjects: 1 (2.6) n (%)
- Grade ≥3 TEAE Pericardial effusion, events: 1 n
- Grade ≥3 TEAE Pericardial effusion, subjects: 1 (2.6) n (%)
- Grade ≥3 TEAE Pleural effusion, events: 2 n
- Grade ≥3 TEAE Pleural effusion, subjects: 2 (5.3) n (%)
- Grade ≥3 TEAE Pneumonia, events: 2 n
- Grade ≥3 TEAE Pneumonia, subjects: 2 (5.3) n (%)
- Grade ≥3 TEAE Pneumonitis, events: 2 n
- Grade ≥3 TEAE Pneumonitis, subjects: 2 (5.3) n (%)
- Grade ≥3 TEAE Pulmonary embolism, events: 3 n
- Grade ≥3 TEAE Pulmonary embolism, subjects: 3 (7.9) n (%)
- Grade ≥3 TEAE Respiratory failure, events: 0 n
- Grade ≥3 TEAE Respiratory failure, subjects: 0 n (%)
- Grade ≥3 TEAE Sepsis, events: 0 n
- Grade ≥3 TEAE Sepsis, subjects: 0 n (%)
- Grade ≥3 TEAE Septic shock, events: 1 n
- Grade ≥3 TEAE Septic shock, subjects: 1 (2.6) n (%)
- Grade ≥3 TEAE Spinal compression fracture, events: 2 n
- Grade ≥3 TEAE Spinal compression fracture, subjects: 2 (5.3) n (%)
- Immune-related TEAE Acute respiratory failure: 0 n (%)
- Immune-related TEAE Bronchospasm: 0 n (%)
- Immune-related TEAE Bulbar palsy: 0 n (%)
- Immune-related TEAE Colitis: 0 n (%)
- Immune-related TEAE Contrast media reaction: 1 (2.0) n (%)
- Immune-related TEAE Diabetes mellitus: 1 (2.0) n (%)
- Immune-related TEAE Diabetic ketoacidosis: 1 (2.0) n (%)
- Immune-related TEAE Drug eruption: 1 (2.0) n (%)
- Immune-related TEAE Erythema: 1 (2.0) n (%)
- Immune-related TEAE Eyelid oedema: 0 n (%)
- Immune-related TEAE Flushing: 1 (2.0) n (%)
- Immune-related TEAE Generalised oedema: 0 n (%)
- Immune-related TEAE Hyperthyroidism: 1 (2.0) n (%)
- Immune-related TEAE Hypothyroidism: 4 (8.0) n (%)
- Immune-related TEAE Idiopathic urticaria: 0 n (%)
- Immune-related TEAE Immune-mediated enterocolitis: 1 (2.0) n (%)
- Immune-related TEAE Infusion related reaction: 0 n (%)
- Immune-related TEAE Lichen planus: 0 n (%)
- Immune-related TEAE Mouth ulceration: 0 n (%)
- Immune-related TEAE Myocarditis: 0 n (%)
- Immune-related TEAE Myositis: 1 (2.0) n (%)
- Immune-related TEAE Pancreatitis: 0 n (%)
- Immune-related TEAE Pneumonitis: 7 (14.0) n (%)
- Immune-related TEAE Pneumonitis Grade ≥3: 3 (6) n (%)
- Immune-related TEAE Pruritus: 8 (16.0) n (%)
- Immune-related TEAE Rash: 6 (12.0) n (%)
- Immune-related TEAE Rash maculo-papular: 1 (2.0) n (%)
- Immune-related TEAE Rash pustular: 0) n (%)
- Immune-related TEAE Respiratory failure: 1 (2.0) n (%)
- Immune-related TEAE Rheumatoid arthritis: 0 n (%)
- Immune-related TEAE Rhinitis allergic: 0 n (%)
- Immune-related TEAE Seasonal allergy: 0 n (%)
- Immune-related TEAE Stomatitis: 0 n (%)
- Immune-related TEAE Thyroiditis: 0 n (%)
- Immune-related TEAE Tracheal obstruction: 0 n (%)
- Immune-related TEAE Type I diabetes mellitus: 1 (2.0) n (%)
- Immune-related TEAE Urticaria: 0 n (%)
- Immune-related TEAE Wheezing: 0 n (%)
- Infusion-related reactions: 2 (4) n (%)
- Rash: 6 (12) n (%)
- SAE Anaemia, events: 0 n
- SAE Anaemia, subjects: 0 n (%)
- SAE Asthenia, events: 2 n
- SAE Asthenia, subjects: 2 (5.3) n (%)
- SAE Chronic obstructive pulmonary disease, events: 0 n
- SAE Chronic obstructive pulmonary disease, subjects: 0 n (%)
- SAE Myocardial infarction, events: 1 n
- SAE Myocardial infarction, subjects: 1 (2.6) n (%)
- SAE Pleural effusion, events: 3 n
- SAE Pleural effusion, subjects: 2 (5.3) n (%)
- SAE Pneumonia, events: 2 n
- SAE Pneumonia, subjects: 2 (5.3) n (%)
- SAE Pneumonitis, events: 1 n
- SAE Pneumonitis, subjects: 1 (2.6) n (%)
- SAE Pulmonary embolism, events: 3 n
- SAE Pulmonary embolism, subjects: 3 (7.9) n (%)
- SAE Septic shock, events: 1 n
- SAE Septic shock, subjects: 1 (2.6) n (%)
- SAE Spinal compression fracture, events: 2 n
- SAE Spinal compression fracture, subjects: 2 (5.3) n (%)
- TEAE Constipation, events: 6 n
- TEAE Constipation, subjects: 4 (10.5) n (%)
- TEAE Decreased appetite, events: 6 n
- TEAE Decreased appetite, subjects: 6 (15.8) n (%)
- TEAE Diarrhoea, events: 7 n
- TEAE Diarrhoea, subjects: 6 (15.8) n (%)
- TEAE Dyspnoea, events: 9 n
- TEAE Dyspnoea, subjects: 7 (18.4) n (%)
- TEAE Fatiguc, events: 11 n
- TEAE Fatiguc, subjects: 11 (28.9) n (%)
- TEAE Nausea, events: 7 n
- TEAE Nausea, subjects: 7 (18.4) n (%)
- TEAE Pneumonia, events: 2 n
- TEAE Pneumonia, subjects: 2 (5.3) n (%)
- TEAE Pneumonitis, events: 7 n
- TEAE Pneumonitis, subjects: 6 (15.8) n (%)
- TEAE Pruritus, events: 6 n
- TEAE Pruritus, subjects: 6 (15.8) n (%)
- TEAE Pyrexia, events: 4 n
- TEAE Pyrexia, subjects: 4 (10.5) n (%)
- TEAE Rash, events: 8 n
- TEAE Rash, subjects: 3 (7.9) n (%)
- TEAE Vomiting, events: 3 n
- TEAE Vomiting, subjects: 3 (7.9) n (%)
- TEAEs leading to study drug mod. int.: 12 (24.0) n (%)
- TEAEs leading to study drug mod. int., related to study treatment: 7 (14.0) n (%)
- TEAEs leading to zim discon., related to zim: 9 (18.0) n (%)
- TEAEs leading to zim mod./int., related to zim: 7 (14.0) n (%)
- grade 3 treatment-emergent adverse events: 58%
- tolerability: well tolerated
